Target: T1, BMAL2 (recombinant human, Novus H00056938-Q01) (Homo sapiens) (UniProt Q8WYA1)
T1 sequence (Q8WYA1 whole entry, looked up): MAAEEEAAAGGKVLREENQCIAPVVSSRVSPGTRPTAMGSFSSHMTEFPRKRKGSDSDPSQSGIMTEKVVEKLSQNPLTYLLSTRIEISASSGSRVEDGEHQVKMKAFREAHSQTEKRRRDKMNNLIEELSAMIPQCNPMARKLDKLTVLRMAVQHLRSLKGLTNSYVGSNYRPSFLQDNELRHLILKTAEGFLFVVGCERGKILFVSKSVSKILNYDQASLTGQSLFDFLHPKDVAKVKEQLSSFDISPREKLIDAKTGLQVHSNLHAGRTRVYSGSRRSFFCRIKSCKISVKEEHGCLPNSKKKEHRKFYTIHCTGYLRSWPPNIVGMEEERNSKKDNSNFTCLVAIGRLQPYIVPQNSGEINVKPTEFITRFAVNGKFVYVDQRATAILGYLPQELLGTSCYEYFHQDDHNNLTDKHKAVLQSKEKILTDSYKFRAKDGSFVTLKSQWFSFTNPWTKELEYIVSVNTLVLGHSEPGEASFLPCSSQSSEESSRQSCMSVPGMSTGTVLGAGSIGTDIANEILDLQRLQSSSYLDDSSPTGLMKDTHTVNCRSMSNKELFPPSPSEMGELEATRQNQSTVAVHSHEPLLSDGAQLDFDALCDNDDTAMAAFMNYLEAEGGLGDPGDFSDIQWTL
Experiment: SPR
Settings: BMAL2 immobilized; oligo analyte 50, 100, 200 nM; global 1:1 fit; OpenSPR (text also says BIAcore), 20 C, 30 ul/min; running buffer, salt and pH not stated (immobilization in 10 mM sodium acetate pH 5.5)

## GGCGCAACGCTGAGCAGCT (double strand) [human PD-L1 promoter predicted BMAL2 binding site oligo]
  Kd: 0.209 µM
